Source: patent US7939057B2, “Methods and compositions for modulating the mobilization of stem cells” (Mount Sinai School of Medicine, priority 2006, dated 2011)

Legend:
[1] = system: hematopoietic stem and progenitor cells (HSPCs); test: G-CSF-induced mobilization of hematopoietic progenitors (circulating CFU-C); type: in vivo, mice
Experimental: To induce HSPC mobilization, mice were injected with recombinant human G-CSF (Filgrastim, Amgen, Thousand Oaks, Calif., 250 μg/kg/day, every 12 hours, 8 divided doses, s.c.) in PBS supplemented with 0.1% endotoxin free bovine serum albumin (BSA) or fucoidan (Sigma; 2 doses of 100 mg/kg with 2 h interval, i.p.) in PBS. Blood was harvested 3 h (G-CSF) or 1 h (fucoidan). CFU-C assays were carried out as previously described (Katayama, Y., and Frenette, P. S. (2003). Galactocerebrosides are required postnatally for stromal-dependent bone marrow lymphopoiesis. Immunity 18, 789-800).
A chronic guide cannula (1.0 mm) was implanted stereotaxically into the lateral ventricle (coordinates AP, −0.7 mm; DV, −2.4 mm; ML, 1.5 mm, from bregma). One week after implantation, mice received a reduced dose of G-CSF (25 μg/kg daily for 4 doses) either by ICV infusion (rate: 0.4 μL/min) or by s.c. injection.
Newborn C57BL/6 mice were injected s.c. with 6OHDA (100 mg/kg, Sigma) or vehicle (saline) on postnatal days 2, 4, 6, 8 and 9. HSPC mobilization was induced at 3 weeks of age. For SNS disruption in adult C57BL6 mice, 4 week-old animals were injected i.p. with 2 doses of 6OHDA or vehicle, 100 mg/kg on day 0, 250 mg/kg on day 2, and G-CSF treatment was begun on day 5. For β-adrenergic receptor blockade, 4 week-old C57BL/6 mice were treated with propranolol (0.5 g/L in drinking water, Sigma) or control pure water for 3 weeks prior to mobilization. For rescue experiments, clenbuterol (2 mg/kg/day, i.p.) was injected starting day −2 prior to and continued during G-CSF treatment.

[2] = system: rhCXCL12α; test: Degradation of rhCXCL12α by BMEF of G-CSF-treated mice (Western blot); type: biochemical, human; details: 24 h at 37° C.
Experimental: PBS or BMEF (35 μl) from G-CSF-treated and control mice was incubated with 50 ng of rhCXCL12α (R&D Systems) for 24 h at 37° C. The reactions were stopped by the addition of sample buffer containing protease inhibitor cocktail (Sigma) and DTT (final concentration 10 mM) followed by boiling for 5 min at 95° C. Samples were separated by electrophoresis on 16% polyacrylamide Tris-tricine gel and transferred onto PVDF membrane (0.2 μm pore size, Millipore, Bedford, Mass.). Membranes were blocked in TBS with 0.05% Tween 20 and 4% milk, incubated with 0.5 μg/ml of mouse monoclonal anti-CXCL12 antibody (clone 79018.111, R&D Systems) then with 1/20,000 dilution of horseradish peroxidase-anti-mouse IgG (Jackson Immunoresearch, West Grove, Pa.). Signal was detected with the enhanced chemiluminescence method (West Dura Extended Duration Substrate, Pierce, Rockford, Ill.).

B1: G-CSF: recombinant human G-CSF (Filgrastim, Amgen), hematopoietic cytokine used to elicit HSPC mobilization (protein, UniProt P09919 31-207, looked up)
Granulocyte …: TPLGPASSLPQSFLLKCLEQVRKIQGDGAALQEKLVSECATYKLCHPEELVLLGHSLGIPWAPLSSCPSQALQLAGCLSQLHSGLFLYQGLLQALEGISPELGPTLDTLQLDVADFATTIWQQMEELGMAPALQPTQGAMPAFASAFQRRAGGVLVASHLQSFLEVSYRVLRHLAQP
modifications: filgrastim
notes: recombinant human G-CSF (Filgrastim, Amgen), hematopoietic cytokine used to elicit HSPC mobilization
HSPC mobilization by route of G-CSF ([1]; C57BL/6 mice, ICV infusion vs s.c. injection, 25 μg/kg daily for 4 doses): robust HSPC mobilization occurred only when mice were treated systemically
G-CSF-induced mobilization in chimeric mice ([1]; CD45.1 wild-type mice reconstituted with Cgt+/+ or −/− BM): similar
G-CSF-induced mobilization of HSPCs ([1]; Cgt−/− mice compared to Cgt+/− or +/+ littermates): little mobilization
G-CSF-triggered mobilization of CFU-Cs and Lin-Sca-1+c-kit+ cells ([1]; Dbh−/− compared to Dbh+/− littermates): dramatically compromised
numbers of circulating progenitors after G-CSF ([1]; Lepr(db/db) vs Lepr(+/db) mice, human G-CSF 250 μg/kg/day, n=5): no difference
circulating CFU-Cs elicited by G-CSF ([1]; Rag 1−/− and IL7Rα−/− mice, data not shown): elicited at levels similar to those of wild-type mice
degradation of recombinant CXCL12 by BMEF ([2]; BMEF from G-CSF-treated Cgt+/+ mice): completely degraded
degradation of recombinant CXCL12 by BMEF ([2]; BMEF from G-CSF-treated Cgt−/− mice): complete degradation
